We go through 14 molecules from patent US20250051474A1, “ANTI-CD97 ANTIBODIES AND ANTIBODY-DRUG CONJUGATES” (New York University, priority 2023, published 2025).

Where a chain is given by its changes, count along the chain named.

What is called Kd is the concentration at which binding is half-saturated. A low value points to a tighter complex.

Sequences and labels used below:
T1: CD97 (ADGRE5) isoform 2 ectodomain, purified and biotinylated (human, UniProt P48960 21-552, biotinylated in vitro using the BirA enzyme)
T1 construct: the whole entry for isoform 2 is named here; also called CD97 isoform 2
T1 sequence: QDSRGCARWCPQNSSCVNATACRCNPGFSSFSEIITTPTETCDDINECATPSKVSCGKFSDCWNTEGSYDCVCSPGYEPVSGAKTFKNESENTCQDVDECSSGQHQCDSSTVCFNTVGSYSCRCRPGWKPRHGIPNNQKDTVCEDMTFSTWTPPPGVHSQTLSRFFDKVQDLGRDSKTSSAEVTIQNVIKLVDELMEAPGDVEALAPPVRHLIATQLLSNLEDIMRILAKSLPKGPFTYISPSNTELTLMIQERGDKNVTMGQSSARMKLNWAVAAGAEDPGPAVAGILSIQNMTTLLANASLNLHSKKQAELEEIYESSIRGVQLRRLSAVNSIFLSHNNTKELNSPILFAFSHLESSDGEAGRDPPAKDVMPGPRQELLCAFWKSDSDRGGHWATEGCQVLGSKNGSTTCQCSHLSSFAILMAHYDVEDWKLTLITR

T2: CD97 (ADGRE5) isoform 1 ectodomain, purified and biotinylated (human, UniProt P48960 21-552, limits assumed, biotinylated in vitro using the BirA enzyme)
T2 construct: the whole entry for isoform 1 is named here; also called CD97 isoform 1; Biotinylated CD97 isoform 1
T2 sequence: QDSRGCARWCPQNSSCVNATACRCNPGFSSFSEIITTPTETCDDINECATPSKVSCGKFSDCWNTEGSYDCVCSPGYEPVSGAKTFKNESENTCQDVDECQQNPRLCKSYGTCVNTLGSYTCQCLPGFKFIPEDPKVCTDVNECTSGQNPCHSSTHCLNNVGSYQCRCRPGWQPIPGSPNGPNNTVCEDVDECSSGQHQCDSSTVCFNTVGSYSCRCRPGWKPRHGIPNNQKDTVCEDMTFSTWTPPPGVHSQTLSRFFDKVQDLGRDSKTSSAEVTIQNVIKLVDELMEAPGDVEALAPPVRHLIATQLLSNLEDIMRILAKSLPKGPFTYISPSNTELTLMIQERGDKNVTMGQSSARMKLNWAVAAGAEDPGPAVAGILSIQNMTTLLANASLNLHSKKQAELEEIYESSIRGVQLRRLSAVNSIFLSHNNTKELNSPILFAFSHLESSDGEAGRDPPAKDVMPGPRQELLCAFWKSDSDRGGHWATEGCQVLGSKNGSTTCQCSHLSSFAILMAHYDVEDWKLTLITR

B1: Fab 2Z11 (Fab, V domains shown)
VH: EVQLVESGGGLVQPGGSLRLSCAASGFTFYYSSIHWVRQAPGKGLEWVASIYSYSGYTSYADSVKGRFTISADTSKNTAYLQMNSLRAEDTAVYYCARYYISGPYYAYRSYTSYAMDYWGQGTLVTVSS
VL: DIQMTQSPSSLSASVGDRVTITCRASQSVSSAVAWYQQKPGKAPKLLIYSASSLYSGVPSRFSGSRSGTDFTLTISSLQPEDFATYYCQQYWGYSLITFGQGTKVEIKR
notes: second discovery campaign; biotinylated Fab in the bead assay; also called Antibody Clone 2Z11
B2: Fab 2Z7 (Fab, V domains shown)
VH: EVQLVESGGGLVQPGGSLRLSCAASGFTFSSSSIHWVRQAPGKGLEWVASISSSSGSTSYADSVKGRFTISADTSKNTAYLQMNSLRAEDTAVYYCARSYWERYYYWYYFYQYELGLDYWGQGTLVTVSS
VL: DIQMTQSPSSLSASVGDRVTITCRASQSVSSAVAWYQQKPGKAPKLLIYSASSLYSGVPSRFSGSRSGTDFTLTISSLQPEDFATYYCQQSSSSLITFGQGTKVEIKR
notes: second discovery campaign; biotinylated Fab in the bead assay; also called Antibody Clone 2Z7
B3: hIgG1_LALA D25 (antibody, V domains shown)
VH: EVQLVESGGGLVQPGGSLRLSCAASGFTFSSSSIHWVRQAPGKGLEWVASISPYYGSTSYADSVKGRFTISADTSKNTAYLQMNSLRAEDTAVYYCARKLEWGMFFWSPYFRALDYWGQGTLVTVSS
VL: DIQMTQSPSSLSASVGDRVTITCRASQSVSSAVAWYQQKPGKAPKLLIYSASSLYSGVPSRFSGSRSGTDFTLTISSLQPEDFATYYCQQSSSSLITFGQGTKVEIK
B4: hIgG1_LALA 2W1 (antibody, V domains shown)
VH: EVQLVESGGGLVQPGGSLRLSCAASGFTVSSSSIHWVRQAPGKGLEWVAYISSSSGSTYYADSVKGRFTISADTSKNTAYLQMNSLRAEDTAVYYCARDFYFGSYYSFGWGLDYWGQGTLVTVSS
VL: B3 VL with S91D, S94Y, L95P
B5: hIgG1_LALA 2Z3 (antibody, V domains shown)
VH: EVQLVESGGGLVQPGGSLRLSCAASGFTFSSSSIHWVRQAPGKGLEWVASISSSSGSTSYADSVKGRFTISADTSKNTAYLQMNSLRAEDTAVYYCARVLLGKFWYYNYYEYSAMDYWGQGTLVTVSS
VL: B3 VL
B6: Antibody clone C27, human IgG1 LALA-PG format (antibody, V domains shown)
VH: EVQLVESGGGLVQPGGSLRLSCAASGFTLSSSSIHWVRQAPGKGLEWVASIYSYYGSTYYADSVKGRFTISADTSKNTAYLQMNSLRAEDTAVYYCARYRGNMYYWESWYGSYWALDYWGQGTLVTVSS
VL: B2 VL
B7: Antibody clone 2V10, human IgG1 LALA-PG format (antibody, V domains shown)
VH: EVQLVESGGGLVQPGGSLRLSCAASGFTISSSSIHWVRQAPGKGLEWVAYIYPSSGSTSYADSVKGRFTISADTSKNTAYLQMNSLRAEDTAVYYCARPWYYSTFNKKWWDYQGLDYWGQGTLVTVSS
VL: B2 VL with S92W, S93W, S94D, L95P
B8: Fab B23 (Fab, V domains shown)
VH: EVQLVESGGGLVQPGGSLRLSCAASGFTVSSSSIHWVRQAPGKGLEWVASIYPYSGSTSYADSVKGRFTISADTSKNTAYLQMNSLRAEDTAVYYCARSLGWHRHYNYYFYFYANAIDYWGQGTLVTVSS
VL: B1 VL with Y94S, S95D, L96P
notes: first discovery campaign; also called Antibody Clone B23
B9: Fab C14 (Fab, V domains shown)
VH: EVQLVESGGGLVQPGGSLRLSCAASGFTVSSSSIHWVRQAPGKGLEWVASIYSYSGSTSYADSVKGRFTISADTSKNTAYLQMNSLRAEDTAVYYCARSFGWGQSFYYSHYFYITAFDYWGQGTLVTVSS
VL: B1 VL with G93H, Y94E
notes: first discovery campaign; also called Antibody Clone C14
B10: Fab A1 (Fab, V domains shown)
VH: EVQLVESGGGLVQPGGSLRLSCAASGFTISSSSIHWVRQAPGKGLEWVASIYSYYGSTYYADSVKGRFTISADTSKNTAYLQMNSLRAEDTAVYYCARPVYGQLGYWTQRWSGMDYWGQGTLVTVSS
VL: DIQMTQSPSSLSASVGDRVTITCRASQSVSSAVAWYQQKPGKAPKLLIYSASSLYSGVPSRFSGSRSGTDFTLTISSLQPEDFATYYCQQYSWSSYLITFGQGTKVEIKR
notes: first discovery campaign; also called Antibody Clone A1
B11: Fab B34 (Fab, V domains shown)
VH: EVQLVESGGGLVQPGGSLRLSCAASGFTVSYSSIHWVRQAPGKGLEWVASIYSSSGYTSYADSVKGRFTISADTSKNTAYLQMNSLRAEDTAVYYCARSYYRYYLSPIYWGSWGMDYWGQGTLVTVSS
VL: B10 VL with Y91S, S92G, W93Y, S94Y, S95G, Y96H
notes: first discovery campaign; also called Antibody Clone B34
B12: Fab B3 (Fab, V domains shown)
VH: EVQLVESGGGLVQPGGSLRLSCAASGFTFSSSSIHWVRQAPGKGLEWVASISPYSGYTSYADSVKGRFTISADTSKNTAYLQMNSLRAEDTAVYYCARAYYYWSHWYMHYVSYPGGMDYWGQGTLVTVSS
VL: B10 VL with Y91L, S92R, W93H, S94Y, Y96H
notes: first discovery campaign; also called Antibody Clone B3
B13: Fab B20 (Fab, V domains shown)
VH: EVQLVESGGGLVQPGGSLRLSCAASGFTISSSSIHWVRQAPGKGLEWVASISSSSGSTSYADSVKGRFTISADTSKNTAYLQMNSLRAEDTAVYYCARIRHYHWYEIPYWDWAIDYWGQGTLVTVSS
VL: B2 VL
notes: first discovery campaign; also called Antibody Clone B20
B14: Fab B25 (Fab, V domains shown)
VH: EVQLVESGGGLVQPGGSLRLSCAASGFTISSSSIHWVRQAPGKGLEWVASISSYSGSTSYADSVKGRFTISADTSKNTAYLQMNSLRAEDTAVYYCARSFFKYYLWYGYHNYWSAIDYWGQGTLVTVSS
VL: B2 VL
notes: first discovery campaign; also called Antibody Clone B25

One test concerns the target T1, CD97 (ADGRE5) isoform 2 ectodomain, …. Nature of the test: bead-based binding titration (biotinylated antigen on streptavidin beads, flow cytometry), 1:1 fit.
In turn, B1 displayed a Kd of 3 nM.
Still for that read-out and setting: under B2 stands 30 nM.

In the next test the target is T2, CD97 (ADGRE5) isoform 1 ectodomain, …. Described as above.
In the case of B1, the Kd was determined as 3.4 nM.
B2: the Kd was 38 nM.

The target in another test is Endogenous CD97 on the cell surface (human) (UniProt P48960). Nature of the test: cell-based binding titration on OCI-AML3 cells, flow cytometry, 1:1 fit. (In flow cytometry, cells or beads pass a laser one at a time.)
As for B3, the Kd was found to be 1 nM. This counts as single-digit nanomolar.
B4 returned a Kd of 25 nM.
In turn, B5 gave a Kd of 140 nM.
The same measure, in the same setting: under B6 stands 9.6 nM.
B7 had a Kd of 0.3 nM. This Kd is about 32-fold lower than that of the molecule before.

In another test the target is T1, CD97 (ADGRE5) isoform 2 ectodomain, …. Briefly: bead-based binding titration (biotinylated antigen on streptavidin beads, flow cytometry), 1:1 fit. This is another data set of the same source.
In turn, B8 yielded a Kd of 0.9 nM.
For B9, the Kd amounted to 5 nM.
B10 had a Kd of 1.7 nM.
As to B11, binding was put at a Kd of 2.7 nM.
The same measure, in the same setting: under B12 stands 4.3 nM; under B13, 2.9 nM.
As for B14, binding was characterised by a dissociation constant (Kd) of 5.5 nM.

A further test addresses T2, CD97 (ADGRE5) isoform 1 ectodomain, …. The test is described as above. The source holds these as a separate data set.
B8 yielded a Kd of 0.9 nM.
As for B9, the Kd was determined as 4.7 nM. Compared with the last molecule, the Kd is about 5.2-fold higher.
In turn, B10 came in with a Kd of 1.7 nM.
B11 returned a Kd of 2.5 nM. This Kd and that of the molecule before are within 1.5-fold of each other.
As to B12, the Kd turned out to be 5.8 nM. This Kd lies about 2.3-fold higher than the previous one.
In turn, B13 displayed a Kd of 2.3 nM.
Molecule B14 showed a Kd of 5.8 nM.
